Test results from patent publication US20060003399.

Experiments:
[1] = test system: Full length human N-WASP, TAP-tagged at the C-terminus (Myc-N-WASP-TAP)
[2] = test system: Full length human WASP, TAP-tagged at the C-terminus (Myc-WASP-TAP)

GST-tev-Rac1
actin polymerization at higher activator concentrations [1]: At higher concentrations, Nck1, Nck2 and Rac1 inhibited WASP- and N-WASP-stimulated actin polymerization
actin polymerization at higher activator concentrations [2]: At higher concentrations, Nck1, Nck2 and Rac1 inhibited WASP- and N-WASP-stimulated actin polymerization
